# Experimental data published in paper PMC8790125, “Molecular Mechanism of SARS-CoVs Orf6 Targeting the Rae1–Nup98 Complex to Compete With mRNA Nuclear Export” (Frontiers in Molecular Biosciences, 2021).
# B1: SARS-CoV-2 Orf6CTT (21-mer peptide, residues 41–61 of SARS-CoV-2 Orf6) (peptide)
# peptide: SKSLTENKYSQLDEEQPMEID
# notes: also called SARS-CoV-2 Orf6 peptide
# Molecular target: T1, Rae1–Nup98_(GLEBS) complex (UniProt P78406 1-368; P52948 157-213)
# T1 construct: Deca-histidine tags are called non-cleavable; also called Rae1–Nup98 complex; Rae1–Nup98 heterodimer; not shown: His10, C-terminal, kept; His10, N-terminal, kept
# Experiment: ITC
# Settings: both partners purified
# T1 sequence (P78406 whole entry, chain 1 of 2): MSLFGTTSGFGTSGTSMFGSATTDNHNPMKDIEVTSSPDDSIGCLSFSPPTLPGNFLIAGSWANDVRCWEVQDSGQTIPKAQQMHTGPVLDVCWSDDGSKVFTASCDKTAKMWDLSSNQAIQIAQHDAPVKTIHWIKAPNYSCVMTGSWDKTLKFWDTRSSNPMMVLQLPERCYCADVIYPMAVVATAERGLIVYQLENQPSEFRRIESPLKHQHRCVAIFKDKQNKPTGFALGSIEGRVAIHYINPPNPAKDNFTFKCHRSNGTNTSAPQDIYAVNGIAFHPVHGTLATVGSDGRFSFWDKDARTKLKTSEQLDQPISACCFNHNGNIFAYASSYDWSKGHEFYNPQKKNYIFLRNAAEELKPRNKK
# T1 sequence (P52948 157-213, chain 2 of 2): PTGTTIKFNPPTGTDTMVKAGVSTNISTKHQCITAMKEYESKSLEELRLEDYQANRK
binder,measurement,value
B1,Kd,142 nM
same,stoichiometry N,1
